This note sets out measurements from patent publication US20240390531A1 (IMAGINAB, published 2024).

In general, Kd refers to the concentration at which binding is half-saturated. As a reminder, the koff is the first-order rate constant of dissociation. By kon is commonly meant the second-order rate constant of association. A high value points to faster complex formation.

Assay [1] concerns the target T1, purified human FAP antigen (human, UniProt Q12884 26-760, limits assumed). As to the kind of experiment: ELISA, plate coated with purified human FAP antigen (FIG. 56D-56E). On the procedure: (§1) Binding kinetics of the novel antigen binding constructs to a purified human FAP antigen was assessed using ELISA. For this assay, a 96 well ELISA plate was coated with the human-FAP antigen diluted to a concentration of 2 mg/mL in coating buffer (0.05M sodium carbonate-bicarbonate buffer, pH 9.6). 100 μl of this coating solution was added to each well in the plate and incubate at 4° C. overnight. The plate was washed 3 times with 300 μl per well of washing buffer (PBS with 0.05% Tween-20). After the last wash, the plate was blocked by adding to each well 200 μl of blocking buffer (PBS with 1% BSA) warmed to room temperature. The plate was then incubated at room temperature for 1 hour under gentle agitation. After blocking, the plate was washed 3 times with 300 μl per well of washing buffer. Dilution samples for each minibody were created by making 2.5× dilutions from a starting sample at 100 ng/mL, or 250 ng/mL, or 1000 ng/mL or 3000 ng/mL in 100 μL sample buffer (PBS with 1% BSA). The dilution samples were transferred to the assay plate and incubated at room temperature for 1 hour under gentle agitation. The plate was then washed 3 times with 300 μl per well of washing buffer.
(§2) Detection was performed by adding 100 μl of HRP labeled detection secondary antibody at an appropriate dilution and incubating the plate at room temperature for 1 hour under gentle agitation. The plate was then washed 3 times with 300 μl per well of washing buffer. For color development, 100 μl of TMB substrate regent, pre-warmed to room temperature, was added to the plate and incubated in the dark at room temperature for 15 min. The reaction was then stopped by adding 100 μl of 650 nm stop solution to the plate and mixed for 1 min at room temperature under gentle agitation. The plate is recorded by reading OD at 650 nm in a plate reader within 20 min after terminating the reaction.

The next assay deals with FAP (UniProt Q12884 26-760, limits assumed). The assay can be described thus: binding kinetics, method not stated (FIG. 42A).
The next assay deals with T2, human FAP on cells (human, UniProt Q12884 1-760).
T2 construct: whole, on cells; The cell line is named under assay; also called HT1080 human FAP cells; HT1080-hFAP cells
The assay can be described thus: flow cytometry on U87-MG glioblastoma cells (FIG. 58B). On the procedure:
As disclosed herein, the binding of constructs to cellular targets was assessed using flow cytometry. Stock of 2.5× serial dilution of minibodies were created starting from a concentration of 100 nM in […] FACS buffer (PBS 2% FBS). Cells were added to a Corning V-bottom polypropylene cell culture plate at 200,000 cells/well. The cells were centrifuged at 100 rpm for 3 minutes and the supernatant discarded. The minibody dilution series were transferred to the plate containing cell pellets and incubated for 1 hr at 4° C. The plate was then washed 3 times with FACS buffer at 200 µl/well, discarding supernatant after each wash by centrifugation at 1000 rpm. 50 µl/well of detection antibody R&D AlexaFluor-647 Goat anti Human (H+L) was added at a 1:100 dilution in FACS buffer and incubated at 4° C. 1 hr. The plate was washed 3 times with FACS buffer at 200 µl/well, discarding supernatant after each wash by centrifuging at 1000 rpm. Cells were then fixed by adding 100 µl of 1% paraformaldehyde in PBS and incubating at room temperature for 15 minutes. 100 µl of PBS were added to each well and the plate was analyzed by flow cytometry using the allophycocyanin fluorescence setting.
(A flow cytometer gives signals particle by particle.)

Assay [2] deals with T1, purified human FAP antigen. As to the kind of experiment: ELISA, plate coated with purified human FAP antigen (FIG. 56A-56C). On the procedure:
as §1, §2
In general terms: An ELISA detects its analyte on a solid surface through an enzyme-linked reagent.

In assay [3] the target is T1, purified human FAP antigen. The assay can be described thus: ELISA, plate coated with purified human FAP antigen (FIG. 91A). On the procedure: as §1

B1: IAB16C3-21 (other)
chain: DIVMTQSPDSLAVSLGERATINCKSSQSLLYSRNQKNYLAWYQQKPGQPPKLLIFWASTRESGVPDRFSGSGFGTDFTLTISSLQAEDVAVYYCQQYFSYPLTFGQGTKVEIKGGGSGGGGQVQLVQSGAEVKKPGASVKVSCKTSRYTFTEYTIHWVRQAPGQRLEWIGGINPNNGIPNYNQKFKGRVTITVDTSASTAYMELSSLRSEDTAVYYCARRRIAYGYDEGHAMDYWGQGTLVTVSSGGCPPCPPC
In assay [1], B1 had a Kd of around 1 nM.

B2: IAB16C1-20 (other)
chain: DIVMTQSPDSLAVSLGERATINCKSSQSLLYSRNQKNYLAWYQQKPGQPPKLLIFWASTRESGVPDRFSGSGFGTDFTLTISSLQAEDVAVYYCQQYFSYPLTFGQGTKVEIKSGGGGQVQLVQSGAEVKKPGASVKVSCKTSRYTFTEYTIHWVRQAPGQRLEWIGGINPNNGIPNYNQKFKGRVTITVDTSASTAYMELSSLRSEDTAVYYCARRRIAYGYDEGHAMDYWGQGTLVTVSSGGCPPCPPC
In turn, B2 came in with an equilibrium dissociation constant (Kd) in assay [1] of around 1 nM.

B3: IAB16C1-38 (other)
chain: DIVMTQSPDSLAVSLGERATINCKSSQSLLYSRNQKNYLAWYQQKPGQPPKLLIFWASTRESGVPDRFSGSGSGTDFTLTISSLQAEDFAVYYCQQYYSYPLTFGQGTKVEIKSGGGGQVQLVQSGAEVKKPGASVKVSCKASGYTFTEYTIHWVRQAPGQRLEWIGGINPNNGIPNYNQKFKGRVTITVDTSASTAYMELSSLRSEDTAVYYCARRRIAYGYDEGHAMDYWGQGTLVTVSSGGCPPCPPC
Regarding B3, the dissociation constant (Kd) in assay [1] is around 1 nM.

B4: IAB16M1-12 (other)
chain: DIVMTQSPDSLAVSLGERATINCKSSQSLLYSRNQKNYLAWYQQKPGQPPKLLIFWASTRESGVPDRFSGSGFGTDFTLTISSLQAEDVAVYYCQQYFSYPLTFGQGTKVEIKGSTSGGGSGGGSGGGGSSQVQLVQSGAEVKKPGASVKVSCKTSRYTFTEYTIHWVRQAPGQRLEWIGGINPNNGIPNYNQKFKGRVTITVDTSASTAYMELSSLRSEDTAVYYCARRRIAYGYDEGHAMDYWGQGTLVTVSSEPKSSDKTHTCPPCPPCGGGSSGGGSGGQPREPQVYTLPPSREEMTKNQVSLTCLVKGFYPSDIAVEWESNGQPENNYKTTPPVLDSDGSFFLYSKLTVDKSRWQQGNVFSCSVMHEALHNHYTQKSLSLSPG
notes: also called Sibrotuzumab minibody; the control
As for B4, in the assay with FAP, the equilibrium dissociation constant (Kd) is 3.34 nM, the koff came to 0.00257 s⁻¹ and the kon was 769000 M⁻¹ s⁻¹. For the same molecule, the Kd with human FAP on cells is around 0.1 nM. The same molecule gave a Kd in assay [2] of around 0.1 nM.

B5: 9A2 (other)
chain 1: EVQLQQSGPELVKPGASVKMSCKASGYTFTSYVMHWLKQKPGQGLEWIGYINPHNDGTKYNEKFKGKATLTSDKSSSTAYMELSSLTSEDSAVYYCARWGIYYGYGAWFAYWGQGTLVTVSA
chain 2: DIVMTQSQKFMSTSVGDRVSVTCKASQNVGTYVAWYQQKPGQSPKALIYSASNRYSGVPDRFTGSGSGTDFTLTISNVQSEDLAEYFCQQYNTYPYTFGGGTKLEIK
notes: also called murine 9A2 construct
For the molecule B5, the Kd in assay [3] was around 1 nM.

B6: IAB16M2-9 (other)
chain: EVQLLESGGGLVQPGGSLRLSCAASGFTFSSYAMSWVRQAPGKGLEWVSAIIGSGASTYYADSVKGRFTISRDNSKNTLYLQMNSLRAEDTAVYYCAKGWFGGFNYWGQGTLVTVSSGSTSGGGSGGGSGGGGSSEIVLTQSPGTLSLSPGERATLSCRASQSVTSSYLAWYQQKPGQAPRLLINVGSRRATGIPDRFSGSGSGTDFTLTISRLEPEDFAVYYCQQGIMLPPTFGQGTKVEIKEPKSSDKTHTCPPCPPCGGGSSGGGSGGQPREPQVYTLPPSREEMTKNQVSLTCLVKGFYPSDIAVEWESNGQPENNYKTTPPVLDSDGSFFLYSKLTVDKSRWQQGNVFSCSVMHEALHNHYTQKSLSLSPG
B6: the Kd (in the assay with human FAP on cells; in assay [2]) was around 0.1 nM throughout.

B7: IAB16M2-29 (other)
chain: QVQLVQSGAEVKKPGASVKVSCKASGYTFTEYTIHWVRQAPGQRLEWIGGINPNNGIPNYNQKFKGRVTITVDTSASTAYMELSSLRSEDTAVYYCARRRIAYGYDEGHAMDYWGQGTLVTVSSGSTSGGGSGGGSGGGGSSDIVMTQSPDSLAVSLGERATINCKSSQSLLYSRNQKNYLAWYQQKPGQPPKLLIFWASTRESGVPDRFSGSGSGTDFTLTISSLQAEDFAVYYCQQYFSYPLTFGQGTKVEIKEPKSSDKTHTCPPCPPCGGGSSGGGSGGQPREPQVYTLPPSREEMTKNQVSLTCLVKGFYPSDIAVEWESNGQPENNYKTTPPVLDSDGSFFLYSKLTVDKSRWQQGNVFSCSVMHEALHNHYTQKSLSLSPG
The molecule B7 yielded a Kd in assay [1] of around 1 nM.

B8: IAB16M2-13 (other)
chain: QVQLVQSGAEVKKPGASVKVSCKTSRYTFTEYTIHWVRQAPGQRLEWIGGINPNNGIPNYNQKFKGRVTITVDTSASTAYMELSSLRSEDTAVYYCARRRIAYGYDEGHAMDYWGQGTLVTVSSGSTSGGGSGGGSGGGGSSDIVMTQSPDSLAVSLGERATINCKSSQSLLYSRNQKNYLAWYQQKPGQPPKLLIFWASTRESGVPDRFSGSGFGTDFTLTISSLQAEDVAVYYCQQYFSYPLTFGQGTKVEIKEPKSSDKTHTCPPCPPCGGGSSGGGSGGQPREPQVYTLPPSREEMTKNQVSLTCLVKGFYPSDIAVEWESNGQPENNYKTTPPVLDSDGSFFLYSKLTVDKSRWQQGNVFSCSVMHEALHNHYTQKSLSLSPG
notes: also called Sibrotuzumab minibody
Regarding B8, the dissociation constant (Kd) (with human FAP on cells; in assay [2]) was around 0.1 nM throughout.

B9: IAB16M1-54 (other)
chain: DIQMTQSPSSLSASVGDRVTITCKASQNVGTYVAWFQQKPGKAPKSLIYSASNRYSGVPSRFSGSGSGTDFTLTISSLQPEDFATYYCQQYNTYPYTFGQGTKLEIKGSTSGGGSGGGSGGGGSSQVQLVQSGAEVKKPGASVKVSCKASGYTFTSYVMHWVRQAPGQGLEWMGYINPHNDGTKYAQKFQGRVTMTRDTSTSTVYMELSSLRSEDTAVYYCARWGIYYGYGAWFAYWGQGTLVTVSSEPKSSDKTHTCPPCPPCGGGSSGGGSGGQPREPQVYTLPPSREEMTKNQVSLTCLVKGFYPSDIAVEWESNGQPENNYKTTPPVLDSDGSFFLYSKLTVDKSRWQQGNVFSCSVMHEALHNHYTQKSLSLSPG
Turning to B9, the Kd in assay [3] is around 1 nM.

B10: IAB16M2-55 (other)
chain: QVQLVQSGAEVKKPGASVKVSCKASGYTFTSYVMHWVRQAPGQGLEWMGYINPHNDGTKYAQKFQGRVTMTRDTSTSTVYMELSSLRSEDTAVYYCARWGIYYGYGAWFAYWGQGTLVTVSSGSTSGGGSGGGSGGGGSSDIQMTQSPSSLSASVGDRVTITCKASQNVGTYVAWFQQKPGKAPKSLIYSASNRYSGVPSRFSGSGSGTDFTLTISSLQPEDFATYYCQQYNTYPYTFGQGTKLEIKEPKSSDKTHTCPPCPPCGGGSSGGGSGGQPREPQVYTLPPSREEMTKNQVSLTCLVKGFYPSDIAVEWESNGQPENNYKTTPPVLDSDGSFFLYSKLTVDKSRWQQGNVFSCSVMHEALHNHYTQKSLSLSPG
Take B10: the equilibrium dissociation constant (Kd) in assay [3] is around 1 nM.

B11: IAB16M1-8 (other)
chain: EIVLTQSPGTLSLSPGERATLSCRASQSVTSSYLAWYQQKPGQAPRLLINVGSRRATGIPDRFSGSGSGTDFTLTISRLEPEDFAVYYCQQGIMLPPTFGQGTKVEIKGSTSGGGSGGGSGGGGSSEVQLLESGGGLVQPGGSLRLSCAASGFTFSSYAMSWVRQAPGKGLEWVSAIIGSGASTYYADSVKGRFTISRDNSKNTLYLQMNSLRAEDTAVYYCAKGWFGGFNYWGQGTLVTVSSEPKSSDKTHTCPPCPPCGGGSSGGGSGGQPREPQVYTLPPSREEMTKNQVSLTCLVKGFYPSDIAVEWESNGQPENNYKTTPPVLDSDGSFFLYSKLTVDKSRWQQGNVFSCSVMHEALHNHYTQKSLSLSPG
With B11, the Kd (with human FAP on cells; in assay [2]) was around 0.1 nM each time.
